The values that follow are results of earlier work, collected in paper PMC3585250.

The target in this data set is integrin αvβ3 (Homo sapiens) (UniProt P06756).
UniProt P06756, sequence (P06756 31-1048, chain 1 of 2): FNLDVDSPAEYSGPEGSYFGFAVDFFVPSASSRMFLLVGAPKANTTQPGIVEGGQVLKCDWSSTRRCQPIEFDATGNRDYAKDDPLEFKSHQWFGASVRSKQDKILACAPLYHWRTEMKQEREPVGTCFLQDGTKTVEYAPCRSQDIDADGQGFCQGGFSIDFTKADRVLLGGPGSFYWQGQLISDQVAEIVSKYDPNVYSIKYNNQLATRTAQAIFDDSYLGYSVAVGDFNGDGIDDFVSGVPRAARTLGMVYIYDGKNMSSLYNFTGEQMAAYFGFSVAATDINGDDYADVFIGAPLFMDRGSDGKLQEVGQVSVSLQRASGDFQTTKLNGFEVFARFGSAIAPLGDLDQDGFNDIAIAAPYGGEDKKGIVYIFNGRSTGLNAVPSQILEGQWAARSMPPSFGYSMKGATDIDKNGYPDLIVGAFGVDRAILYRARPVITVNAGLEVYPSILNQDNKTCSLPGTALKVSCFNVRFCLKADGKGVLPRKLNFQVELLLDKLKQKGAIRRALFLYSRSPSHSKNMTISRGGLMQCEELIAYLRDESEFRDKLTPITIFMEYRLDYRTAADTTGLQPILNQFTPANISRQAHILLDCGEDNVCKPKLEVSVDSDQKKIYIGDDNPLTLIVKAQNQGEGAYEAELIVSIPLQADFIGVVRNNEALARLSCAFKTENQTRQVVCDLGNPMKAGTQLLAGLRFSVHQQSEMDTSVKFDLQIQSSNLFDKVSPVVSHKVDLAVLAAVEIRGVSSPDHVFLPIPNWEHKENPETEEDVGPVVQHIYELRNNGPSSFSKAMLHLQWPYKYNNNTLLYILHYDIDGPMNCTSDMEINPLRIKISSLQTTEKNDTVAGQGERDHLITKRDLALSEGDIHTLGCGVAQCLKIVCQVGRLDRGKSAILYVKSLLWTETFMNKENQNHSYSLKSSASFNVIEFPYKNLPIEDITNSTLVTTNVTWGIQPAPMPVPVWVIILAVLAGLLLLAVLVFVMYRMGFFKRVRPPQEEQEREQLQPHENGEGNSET
UniProt P06756, sequence (P05106 27-788, chain 2 of 2, further chain): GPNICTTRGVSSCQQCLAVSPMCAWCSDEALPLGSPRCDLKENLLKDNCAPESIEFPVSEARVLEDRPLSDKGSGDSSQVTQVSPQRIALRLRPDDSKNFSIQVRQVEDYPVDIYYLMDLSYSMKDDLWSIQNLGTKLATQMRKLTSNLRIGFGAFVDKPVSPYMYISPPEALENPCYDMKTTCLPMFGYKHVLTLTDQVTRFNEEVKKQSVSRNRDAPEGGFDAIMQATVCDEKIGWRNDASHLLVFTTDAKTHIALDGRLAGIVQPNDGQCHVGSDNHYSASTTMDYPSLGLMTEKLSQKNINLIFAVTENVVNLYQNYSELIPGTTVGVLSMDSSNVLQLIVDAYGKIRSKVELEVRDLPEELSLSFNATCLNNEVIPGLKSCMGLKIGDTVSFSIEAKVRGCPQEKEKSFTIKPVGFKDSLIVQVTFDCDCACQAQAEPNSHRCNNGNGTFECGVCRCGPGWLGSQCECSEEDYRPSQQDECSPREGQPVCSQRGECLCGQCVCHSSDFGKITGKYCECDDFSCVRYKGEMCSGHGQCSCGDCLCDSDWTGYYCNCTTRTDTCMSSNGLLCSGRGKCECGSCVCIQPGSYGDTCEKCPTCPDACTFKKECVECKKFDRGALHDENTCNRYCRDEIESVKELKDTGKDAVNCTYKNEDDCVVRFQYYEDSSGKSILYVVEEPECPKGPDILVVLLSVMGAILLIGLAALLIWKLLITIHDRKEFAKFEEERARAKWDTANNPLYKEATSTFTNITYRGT

As for FGF1 (from UniProt P05230), the Kd was 1000 nM.

For orientation: Kd means the concentration at which binding is half-saturated.
